Measurements taken from the DeepSol protein solubility set.

Assay: soluble on expression in E. coli; label from the status in PepcDB or PDB records

Sequence	soluble on expression in E. coli
ESRLDRILESGVLRVATTGDYKPFSYRTEEGGYAGFDVDMAQRLAESLGAKLVVVPTSWPNLMRDFADDRFDIAMSGISINLERQRQAYFSIPYLRDGKTPITLCSEEARFQTLEQIDQPGVTAIVNPGGTNEKFARANLKKARILVHPDNVTIFQQIVDGKADLMMTDAIEARLQSRLHPELCAVHPQQPFDFAEKAYLLPRDEAFKRYVDQWLHIAEQSGLLRQ	not soluble
MSLERKLEIVKTKTENYTIKVDGVFIHSKYDPLREAETFAIKNIELIKNSRYIVIYGFGLGYHIEAVLRHMNEESMLAVFDADLEVIKEAKKQSLYKKLIKNPRLKCFFDYGDEFLKEFSKSLSLAKNIIIYRPSLKVLPEEFGHMARLLKGYELAKIEIEKHGKLAEYNYDMNLKKTHKKMQDFLSFYSFGCENIVLVSSGPSLDYNIESLKKVRDRVKIFCAGSAAEFLIKNHIIPDMICIIDPQDIVYTQLQSILNKNIPLCFLSSACSRVVSEWSGEKFLFFNDFNAARENNDVVVETGKSVATAILSIAVLKKPKKVIFIGQDLAYLNGKSHHDNYGSSQSSGIKKVRSVDGEYLETNEGFLYFKSWIEQKIMKSKDIEFINCSSGAEIKGTIASKLIDAIKEGHHHHHH	soluble
MTRSDRPYRGVEAAERLATRRRQSLSAGLDLLGSDQHDIAELTIRTICRRAGLSVRYFYESFTDKDEFVGRVFDWVVAELVATTQAAVTAVPAREQTRAGMANIVRTITADARVGRLLFSTQLANAVITRKRAESSALFAMLSGQHAVDTLHAPANDHVKAVAHFAVGGVGQTISAWLAGDVRLDPDQLVDQLAALLDELTDPNLSRPRVAATAAKSGANDPQPPEVAGQPPSSARPARRS	soluble
MSLAEFIYTMKKVRKAHGDKVILDDVTLSFYPGAKIGVVGPNGAGKSSVLRIMAGLDKPNNGDAFLATGATVGILQQEPPLNEDKTVRGNVEEGMGDIKIKLDRFNEVAELMATDYTDELMEEMGRLQEELDHADAWDLDAQLEQAMDALRCPPADEPVTNLSGGERRRVALCKLLLSKPDLLLLDEPTNHLDAESVQWLEQHLASYPGAILAVTHDRYFLDNVAEWILELDRGRAYPYEGNYSTYLEKKAERLAVQGRKDAKLQKRLTEELAWVRSGAKARQAKSKARLQRYEEMAAEAEKTRKLDFEEIQIPVGPRLGNVVVEVDHLDKGYDGRALIKDLSFSLPRNGIVGVIGPNGVGKTTLFKTIVGLETPDSGSVKVGETVKLSYVDQARAGIDPRKTVWEVVSDGLDYIQVGQTEVPSRAYVSAFGFKGPDQQKPAGVLSGGERNRLNLALTLKQGGNLILLDEPTNDLDVETLGSLENALLNFPGCAVVISHDRWFLDRTCTHILAWEGDDDNEGHHHHHH	not soluble
MVLLVMKSSTTIITAYFDIGRGDWTANKGFREKLARSVDVYFSYFERLAALENEMIIFTSPDLKPRVEAIRNGKPTTVIVIDIKKKFRYIRSRIEKIQKDESFTNRLEPRQLKNPEYWSPEYVLVCNLKAYFVNKAINMGLVKTPLVAWIDFGYCRKPNVTRGLKIWDFPFDESKMHLFTIKKGLTVTSQQQVFDFMIGNHVYIIGGAIVGSQHKWKEFYKLVLESQKITLNNNIVDDDQGIFVMCYYKRPDLFNLNYLGRGKWFDLFRCFRSNTLGAKMQALRIFLSRK	not soluble
MSYYHHHHHHDYDIPTTGNLYFQGAMVAISFRPTADLVDDIGPDVRSCDLQFRQFGGRSQFAGPISTVRCFQDNALLKSVLSQPSAGGVLVIDGAGSLHTALVGDVIAELARSTGWTGLIVHGAVRDAAALRGIDIGIKALGTNPRKSTKTGAGERDVEITLGGVTFVPGDIAYSDDDGIIVV	soluble
VQFQEYVFLQFLGLDKAPSPQKFQPVPYILKKIFQDREAAATTGVSRDLCYVKELGVRGNVLRFLPDQGFFLYPKKISQASSCLQKLLYFNLSAIKEREQLTLAQLGLDLGPNSYYNLGPELELALFLVQEPHVWGQTTPKPGKMFVLRSVPWPQGAVHFNLLDVAKDWNDNPRKNFGLFLEILVKEDRDSGVNFQPEDTCARLRCSLHASLLVVTLNPDQCHPSRKRRAAIPVPKLSCKNLCHRHQLFINFRDLGWHKWIIAPKGFMANYCHGECPFSLTISLNSSNYAFMQALMHAVDPEIPQAVCIPTKLSPISMLYQDNNDNVILRHYEDMVVDECGCG	soluble
MNTRIKPVRSFLFVPGNKESMLDKAAQAGADALILDLEDSVPSPEKTAARELVAKKIPELIAQNQRIWVRINRTAHIYDLDDILAVAPAGIEGIYISKPGGPEDVYMASCMIAEAEARANLPLGSIGLIPLLETARSMQLCYDIAQMPRVAGIVGATARNADMGRALKFVWTAEGRETEYLKSRVVMAARAAGKQAIGGLWQQIKDLDGLAKSSAFDRQLGMSGELVLHPMQVETINRTYTPTAEDVAYYQGMIEALDAAQAQGRASVMYEGEHIDIAHVKTAHEVIALAQSFGN	not soluble
VIALLAPGQGSQTEGMLSPWLQLPGAADQIAAWSKAADLDLARLGTTASTEEITDTAVAQPLIVAATLLAHQELARRCVLAGKDVIVAGHSVGEIAAYAIAGVIAADDAVALAATRGAEMAKACATEPTGMSAVLGGDETEVLSRLEQLDLVPANRNAAGQIVAAGRLTALEKLAEDPPAKARVRALGVAGAFHTEFMAPALDGFAAAAANIATADPTATLLSNRDGKPVTSAAAAMDTLVSQLTQPVRWDLCTATLREHTVTAIVEFPPAGTLSGIAKRELRGVPARAVKSPADLDELANL	not soluble
MGSDKIHHHHHHMNLSMISASVTMGELQKKLDTLSHNIANSNTTGYKRREASFSDLLFQQVNTNKATQYETGRLTPNGIRVGSGAKVSQTALRMEQGTLTTTDRALDFAIANPSSFFEIETVVDGNPVTRLTRDGAFYLTANPNNDNLLQLVTQNGDYLLDSAGNRINIPATFEEITLTDQGTLQVTMPNGANVQAAQLQLIQVMKPQLLEAVGGNMFQLPDLAALGFAENEVYAAVGAGGGAVVQGTLEGSNVDIGREMTDLIETQRNYQFNARSVSMADQMMGLVNGLRR	not soluble
MGSDKIHHHHHHMVPHLITALNGPLLELEKKILDATPSIERWFRLEWQEHTPPFYCSVDLRNAGFKLAPVDTNLFPGGFNNLAPEMLPLAVQAAMAAIEKICPDAKNLLLIPERHTRNMFYLQNVARLSLIMRQAGLNVRLGSLSEEITEPTPIELPDGQTLVVEPLARLGTKDRRLGLKDFDPCSILLNNDLSAGIPPILENINEQYLLPPLHAGWSTRRKSSHFAAYDEVAKKFAKLIDIDQWMVNPYFARCSGVNFHERIGEEELADSVEAVLKKIAKKYREYGIKETPYVVVKADAGTYGMGIMTVRDPSEVKGLNRKERNKMSVVKEGLEVSDVIIQEGVHTFEKVNEAVAEPVVYMIDRYVVGGFYRVHTGRGNDENLNAPGMHFVPLAFAPNGIPDSHAKPGAAVPNRFYMYGVVARLALLAASIELEKTDPNPIL	not soluble
MKPPFEQALGIIRQLKRHGYEAYFVGGAVRDLLIGRPIGDVDIATSALPEEVMRLFPKTIDVGSKHGTVVVVHEGTAYEVTTFRTDGDYEDHRRPESVTFVRSLEEDLKRRDFTMNAIAMDERGTIIDPFGGQEAIERRLICTVGAADERFREDALRMMRAVRFVSQLGFALAEDTKSAIVQNAPLMAHISVERMTMEMEKLLAGPFVAEALPLLADTGLFAYLPGLAAKEQLLRSAAAFRWPWLTKREERWALLCRALDVKDIRPFLRAWKLPNKVIDEAGAILAALDDVPRPEAWTNEQLFSAGLERALSVEAVRAALCGAPSEPHHEELRRRFAALPIKTKGELAVNGKDVIRWAGKPAGPWVKETLDAIWRAVVSSEVENEKERIYAWLMERNRTHEKNC	not soluble
PKNKAKKNPVRFYKNNFFMLKDKVNNIYVYVYEHKKNDNYNDLYLPRDNVFPYLGRVYINNDNGFIINDVYFSSERIGVKNYYDKDNPILINKHSSEGNRSYGYEPETFAEIKFKTKLDNISKSQIEYIIEFKPYDSIVDYVGDNIKKTLREPVKIEGTFEIIKEDEAEIIRLHNADIFGLYNVESILFSSERIFSGNVFNFDYLFINGKEKINSSINGVKEFSDEFLKDKINENKNIVESYVKESKQRHWKSLMDESILNYIDNYADYYNELKEFKSFNILYYDDKTISLYKRVSKLEDLKLAEIDNMFMTFELESQKLISPYIKDFVNDSEALLKKYNAPSDFYSNIDSLIFGITDSFIIIMNEKGCGKIFIDYKNIKEYINKDHYLAYLFN	not soluble
MGHHHHHHSHMACLNPVPKLYRSVIEDVIEGVRNLFAEEGIEEQVLKDLKQLWETKVLQSKATEDFFRNSIQSPLFTLQLPHSLHQTLQSSTASLVIPAGRTLPSFTTAELGTSNSSANFTFPGYPIHVPAGVTLQTVSGHLYKVNVPIMVTETSGRAGILQHPIQQVFQQLGQPSVIQTSVPQLNPWSLQATTEKSQRIETVLQQPAILPSGPVDRKHLENATSDILVSPGNEHKIVPEALLCHQESSHYISLPGVVFSPQVSQTNSD	not soluble
TPTDKHGGSDTRCPLMVKILDAVKGTPAGSVALKVSQKTADGGWTQIATGVTDATGEIHNLITEQQFPAGVYRVEFDTKAYWTNQGSTPFHEVAEVVFDAHPEGHRHYTLALLLSPFSYTTTAVVSSVHE	soluble
MATAIAITSLLIISGCSSNVETTTVKKETMQSQQKNTETVNTTPQNFYKDITSGKIEHIHGIGYVGNVPWVSIATHSGIKVYQNGKWLETATQLHDYMGFQATKNGFFASGHPEPGANLKNPLGLMKSSDGGNTLEKLAFYGESDFHNLAVGYNTEAIYLYNERPNSKLQQGFYFSTNNGQDWKNSKLKGLSSTVHSFSVHPDQSSVVAVSTKDGVYLSTDYGNTFELFSKSLESTAVTLSNEDVIYAPINTQIVTKKSIATNEETNIQIPLLDSKDAIMYISQNPQNAAEIVFATMKANVFLSTDEGKTWKQLTKEGTLQFN	not soluble
MALRLAVSSALRPALNSQVRNASSAVSVKDVLASAPQAEVTTLKNGFRVVTEDNGSATATVGVWIETGSRFENEKNNGVAHFLERLIHKGTGKRASAALESELNAIGAKLNSFTERDQTAVFVQAGAQDVEKVVDILADVLRNSKLEASTIDTERVNLLKELEASDDYHQLVLFDMLHAAGFQGTPLALSVLGTSESIPNISAQQLKEWQEDHYRPVRMVLSAVGGGVSNVSSLADKYFGDLSNEYPRKVPQVDGTRFTGSEYRYRNDNVPHMYAAFAVEGVGYAHKDALALQIANQFIGQWDVTHATSRTAASRLVQKIGHDHGVHNLQHFNINYKDTGLFGIYFVADAHDLNDTSGIMKSVAHEWKHLASAATEEEVAMAKNQFRTNLYQNLETNTQKAGFNAKELLYTGNLRQLSELEAQIQKVDAGAVREAISRHVYDRDLAAVGVGRTEAFPNYALTRAGMSWWRM	not soluble
MEVVLHEGDAKDWVYKGEGAANLILSYTGSSPSMLGKVLRVKKILKDKGQPAPNCIVFSSHEEHLWGKIPGLLESVKNDCLPQAYATIVMSQHLGANHVDGGVRVRVSKNFFELAGKNVLDNRPAWRVNASAIDAGADSALLISDHTLFSGNPRGSSCIAVEIKAKCGFLPSSEYISKENSIKKQVTRYKMHQHLKFHLGEISKTSEYDPLDLFSGSKERIHMAIKSFFSTPQNNFRIFVDGSLVFGGMGGGADSVHPNETEKCLEDLSKVTGLQLSDFIELLSEAIFKSGVLGKLLATQKLDDHDIEGAIHLYYNIISQPCLVCKSITDTELLRKYSTLHSLPLDKSEKIVRDFLISATAKDCSLMISFRPRQSGTTDSEYDSVFLDSVNQSYDYKAYFIDLDVKPLDKMVLLPSRENV	soluble
SASDFEERVVTIPLRDARAEPNHKRADKAMILIREHLAKHFSVDEDAVRLDPSINEAAWARGRANTPSKIRVRAARFEEEGEAIVEAETAE	soluble
MWYGLGLAFLGGIFRIFPFDMEHTITRQIFCPWLFAFSMTRKQFQGRKPYNYLASFLLFQCRLKESFHGQLVKPIVSWNLWTHRYHNGCFR	not soluble
